Results: US12338277

Key:
Assay in all cases: cell-based or functional assay
[1] = molecular target: HIV-1 envelope of pseudovirus CNE30 (HIV-1)
[2] = molecular target: HIV-1 envelope of pseudovirus 3817.v2.c59 (HIV-1)
[3] = molecular target: HIV-1 envelope of pseudovirus MS208.A1 (HIV-1)
[4] = molecular target: HIV-1 envelope of pseudovirus AC10.0.29 (HIV-1)
[5] = molecular target: HIV-1 envelope of pseudovirus CNE17 (HIV-1)
[6] = molecular target: HIV-1 Env of pseudovirus THRO4156.18 (HIV-1)
[7] = molecular target: HIV-1 Env of pseudovirus SC422661.8 (HIV-1)
[8] = molecular target: HIV-1 envelope of pseudovirus BF1266.431a (HIV-1)
[9] = molecular target: HIV-1 envelope of pseudovirus BJOX025000.01.1 (HIV-1)
[10] = molecular target: HIV-1 Env of pseudovirus X1632_S2_B10 (HIV-1)
[11] = molecular target: HIV-1 envelope of pseudovirus Du156.12 (HIV-1)
[12] = molecular target: HIV-1 envelope spike of pseudovirus SC422661.8 (HIV-1)
[13] = molecular target: HIV-1 envelope of pseudovirus HIV-001428-2.42 (HIV-1)
[14] = molecular target: HIV-1 Env of pseudovirus Ce2010_F5 (HIV-1)
[15] = molecular target: HIV-1 Env of pseudovirus 620345.c01 (HIV-1)
[16] = molecular target: HIV-1 Env of pseudovirus R2184.c04 (HIV-1)
[17] = molecular target: HIV-1 envelope of pseudovirus CNE52 (HIV-1)
[18] = molecular target: HIV-1 Env of pseudovirus 3365.v2.c2 (HIV-1)
[19] = molecular target: HIV-1 envelope of pseudovirus Ce0393_C3 (HIV-1)
[20] = molecular target: HIV-1 envelope of pseudovirus 6540.v4.c1 (HIV-1)
[21] = molecular target: HIV-1 envelope of pseudovirus Ce2060_G9 (HIV-1)
[22] = molecular target: HIV-1 envelope of pseudovirus 3365.v2.c2 (HIV-1)
[23] = molecular target: HIV-1 envelope of pseudovirus HIV-16055-2.3 (HIV-1)
[24] = molecular target: HIV-1 Env of pseudovirus Du156.12 (HIV-1)
[25] = molecular target: HIV-1 envelope of pseudovirus ZM214M.PL15 (HIV-1)
[26] = molecular target: HIV-1 Env of pseudovirus WEAU_d15_410_787 (HIV-1)
[27] = molecular target: HIV-1 Env of pseudovirus 928-28 (HIV-1)
[28] = molecular target: HIV-1 envelope of pseudovirus R2184.c04 (HIV-1)
[29] = molecular target: HIV-1 Env of pseudovirus Ce1176_A3 (HIV-1)
[30] = molecular target: HIV-1 Env of pseudovirus 7030102001E5(Rev-) (HIV-1)
[31] = molecular target: HIV-1 envelope of pseudovirus Q259.d2.17 (HIV-1)
[32] = molecular target: HIV-1 Env of pseudovirus ZM197M.PB7 (HIV-1)
[33] = molecular target: HIV-1 envelope spike of pseudovirus PVO.4 (HIV-1)
[34] = molecular target: HIV-1 envelope of pseudovirus QH0692.42 (HIV-1)
[35] = molecular target: HIV-1 Env of pseudovirus Ce0682_E4 (HIV-1)
[36] = molecular target: HIV-1 Env of pseudovirus T278-50 (HIV-1)
[37] = molecular target: HIV-1 Env of pseudovirus 3103.v3.c10 (HIV-1)
[38] = molecular target: HIV-1 Env of pseudovirus HIV-16055-2.3 (HIV-1)
[39] = molecular target: HIV-1 Env of pseudovirus WITO4160.33 (HIV-1)
[40] = molecular target: HIV-1 envelope of pseudovirus WITO4160.33 (HIV-1)
[41] = molecular target: HIV-1 envelope of pseudovirus 6545.v4.c1 (HIV-1)
[42] = molecular target: HIV-1 Env of pseudovirus Ce703010054_2A2 (HIV-1)
[43] = molecular target: HIV-1 envelope of pseudovirus 3016.v5.c45 (HIV-1)
[44] = molecular target: HIV-1 envelope of pseudovirus 6240_08_TA5_4622 (HIV-1)
[45] = molecular target: HIV-1 envelope of pseudovirus T255-34 (HIV-1)
[46] = molecular target: HIV-1 envelope of pseudovirus 0260.v5.c36 (HIV-1)
[47] = molecular target: HIV-1 envelope of pseudovirus T251-18 (HIV-1)
[48] = molecular target: HIV-1 envelope of pseudovirus PVO.4 (HIV-1)
[49] = molecular target: HIV-1 Env of pseudovirus BJOX028000.10.3 (HIV-1)
[50] = molecular target: HIV-1 Env of pseudovirus 0815.v3.c3 (HIV-1)

Sequence of 10-996 (antibody) (VH): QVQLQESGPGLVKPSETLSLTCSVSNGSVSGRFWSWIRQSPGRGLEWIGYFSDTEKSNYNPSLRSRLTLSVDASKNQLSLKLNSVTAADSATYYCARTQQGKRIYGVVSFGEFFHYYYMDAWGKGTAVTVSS
Sequence of 10-996 (antibody) (VL): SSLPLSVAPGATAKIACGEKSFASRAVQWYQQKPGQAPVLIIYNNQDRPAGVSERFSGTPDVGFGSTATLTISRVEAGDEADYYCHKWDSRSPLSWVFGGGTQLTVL

In the case of 10-996 (antibody), the IC50 (TZM-bl neutralization) [1] is reported as 0.614 µg/mL, the IC50 (TZM-bl neutralization) [2] is reported as 8.15 µg/mL and the IC50 (TZM-bl neutralization) [3] is reported as > 50 µg/mL. For the same substance, the IC50 (TZM-bl neutralization) [4] was 0.067 µg/mL, the IC50 (TZM-bl neutralization) [5] was 4.04 µg/mL and the IC80 (TZM-bl neutralization) [6] was > 50 µg/mL. For the same substance, the IC80 (TZM-bl neutralization) [7] was 0.627 µg/mL, the IC50 (TZM-bl neutralization) [8] was > 50 µg/mL and the IC50 (TZM-bl neutralization) [9] was > 50 µg/mL. The IC80 (TZM-bl neutralization) [10] was > 50 µg/mL, the IC50 (TZM-bl neutralization) [11] was 0.018 µg/mL and the IC50 (TZM-bl neutralization assay) [12] was 0.255 µg/mL. The IC80 (TZM-bl neutralization assay) [12] was 0.845 µg/mL, the IC50 (TZM-bl neutralization) [13] was 0.04 µg/mL and the IC80 (TZM-bl neutralization) [14] was > 50 µg/mL. For the same substance, the IC80 (TZM-bl neutralization) [15] was > 50 µg/mL, the IC80 (TZM-bl neutralization) [16] was > 50 µg/mL and the IC50 (TZM-bl neutralization) [17] was 4.53 µg/mL. The IC80 (TZM-bl neutralization) [18] was 1.38 µg/mL, the IC50 (TZM-bl neutralization) [19] was > 50 µg/mL and the IC50 (TZM-bl neutralization) [20] was > 50 µg/mL. The IC50 (TZM-bl neutralization) [21] was > 50 µg/mL, the IC50 (TZM-bl neutralization) [22] was 0.286 µg/mL and the IC50 (TZM-bl neutralization) [23] was > 50 µg/mL. For the same substance, the IC80 (TZM-bl neutralization) [24] was 0.101 µg/mL, the IC50 (TZM-bl neutralization) [25] was 0.413 µg/mL and the IC80 (TZM-bl neutralization) [26] was 0.422 µg/mL. The IC80 (TZM-bl neutralization) [27] was 7.15 µg/mL, the IC50 (TZM-bl neutralization) [28] was > 50 µg/mL and the IC80 (TZM-bl neutralization) [29] was 0.151 µg/mL. For the same substance, the IC80 (TZM-bl neutralization) [30] was 0.044 µg/mL, the IC50 (TZM-bl neutralization) [31] was > 50 µg/mL and the IC80 (TZM-bl neutralization) [32] was > 50 µg/mL. It also gave an IC50 (TZM-bl neutralization assay) [33] of 0.211 µg/mL, an IC80 (TZM-bl neutralization assay) [33] of 1.72 µg/mL and an IC50 (TZM-bl neutralization) [34] of 0.396 µg/mL. The IC80 (TZM-bl neutralization) [35] was > 50 µg/mL, the IC80 (TZM-bl neutralization) [36] was > 50 µg/mL and the IC80 (TZM-bl neutralization) [37] was 0.15 µg/mL. The IC80 (TZM-bl neutralization) [38] was > 50 µg/mL, the IC80 (TZM-bl neutralization) [39] was 6.48 µg/mL and the IC50 (TZM-bl neutralization) [40] was 0.538 µg/mL. The IC50 (TZM-bl neutralization) [41] was > 50 µg/mL, the IC80 (TZM-bl neutralization) [42] was > 50 µg/mL and the IC50 (TZM-bl neutralization) [43] was > 50 µg/mL. The IC50 (TZM-bl neutralization) [44] was 0.095 µg/mL, the IC50 (TZM-bl neutralization) [45] was 28.4 µg/mL and the IC50 (TZM-bl neutralization) [46] was 0.16 µg/mL. For the same substance, the IC50 (TZM-bl neutralization) [47] was 0.939 µg/mL, the IC50 (TZM-bl neutralization) [48] was 0.186 µg/mL and the IC80 (TZM-bl neutralization) [49] was > 50 µg/mL. It also gave an IC80 (TZM-bl neutralization) [50] of 0.251 µg/mL.
